The target in one data set is Rha0230 (Rhodococcus jostii, UniProt Q0SK70). To be noted: 100 mM Tris-SO4, pH 8.5, 30 °C; defluorination.
For another data set, the target named is ST2570 (Sulfurisphaera tokodaii, UniProt Q96XE7). Particulars: 100 mM Tris-SO4, pH 8.5, 30 °C; defluorination.
Another data set concerns Bpro0530. Particulars: 100 mM Tris-SO4, pH 8.5, 30 °C; defluorination.
The next data set deals with O=C(O)CCl. Kind of data set: purified protein. Particulars: pH 8.5; 30.0 °C.
The data set “crystal structure” deals with the molecule itself. Kind of data set: crystal structure.

As a reminder, the Km is the concentration of substrate that gives half-maximal velocity. Consider `O=C(O)CF` [fluoroacetate], for which the Km at Rha0230 came out at 18 ± 3 mM; at ST2570 it was 2.4 ± 0.7 mM; in the data set with Bpro0530, 20.3 ± 0.3 mM.
Broadly, the kcat/Km is the second-order rate constant that governs catalysis at low substrate concentration. In the case of Rha0230 (Rhodococcus jostii RHA1), in the data set with O=C(O)CCl, the Michaelis constant (Km) is on record as 18 ± 2 mM and the kcat/Km is 37 ± 6 M⁻¹ s⁻¹.
Turning to Rha0230 (Rhodococcus jostii RHA1; Y61F), in the data set on O=C(O)CCl, the Km is recorded as 14 ± 2 mM and the kcat/Km came to 73 ± 13 M⁻¹ s⁻¹.
With ST2570 (Sulfurisphaera tokodaii str. 7), in the data set with O=C(O)CCl, the Km was found to be 0.00353 ± 3e-05 mM and the specificity constant (kcat/Km) is 73000 ± 1100 M⁻¹ s⁻¹.

B1: PA0810, L-2-haloacid dehalogenase from Pseudomonas aeruginosa PAO1 (enzyme)
chain: MRAILFDVFGTLVDWRSSLIEQFQALERELGGTLPCVELTDRWRQQYKPAMDRVRNGQAPWQHLDQLHRQSLEALAGEFGLALDEALLQRITGFWHRLRPWPDTLAGMHALKADYWLAALSNGNTALMLDVARHAGLPWDMLLCADLFGHYKPDPQVYLGACRLLDLPPQEVMLCAAHNYDLKAARALGLKTAFIARPLEYGPGQSQDLAAEQDWDLIASDLLDLHRQLAASA
Take B1: in the data set “crystal structure”, the binding result is on record as “binds”.

The record behind these values is PMC10281000 (Chembiochem : a European journal of chemical biology, 2021).
